T1: Plasmodium falciparum Hsp70-Hsp90 organising protein (PfHop) (Plasmodium falciparum), Q8ILC1
T1 chain: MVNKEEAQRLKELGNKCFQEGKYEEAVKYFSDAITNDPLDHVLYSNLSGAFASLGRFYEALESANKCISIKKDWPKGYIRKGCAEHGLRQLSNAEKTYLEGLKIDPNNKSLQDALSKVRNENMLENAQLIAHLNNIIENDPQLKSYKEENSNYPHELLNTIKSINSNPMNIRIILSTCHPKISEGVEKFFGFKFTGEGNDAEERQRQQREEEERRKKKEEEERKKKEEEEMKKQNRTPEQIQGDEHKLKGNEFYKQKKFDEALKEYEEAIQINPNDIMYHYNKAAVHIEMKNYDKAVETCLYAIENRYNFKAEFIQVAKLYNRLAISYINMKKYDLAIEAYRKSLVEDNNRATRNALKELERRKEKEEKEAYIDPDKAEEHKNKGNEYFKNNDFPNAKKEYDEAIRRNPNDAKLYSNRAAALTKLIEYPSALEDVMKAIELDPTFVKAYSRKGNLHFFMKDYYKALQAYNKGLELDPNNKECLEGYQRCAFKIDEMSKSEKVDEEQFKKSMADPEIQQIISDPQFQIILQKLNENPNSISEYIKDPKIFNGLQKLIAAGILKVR

B1: Plasmodium falciparum Hsp70-Hsp90 organising protein (PfHop), Q8ILC1 1-564 (natural protein)
chain: T1 chain
B2: Plasmodium falciparum Hsp70-Hsp90 organising protein (PfHop), recombinant, his-tagged (natural protein, UniProt Q8ILC1 1-564, looked up)
chain: T1 chain

Tests used:
[1] = target: T1, Plasmodium falciparum Hsp70-Hsp90 …; assay: SPR; ProteOn XPR36, GLC chip; PfHop immobilised by amine coupling, PfHop as analyte (125-2000 nM); self-association, step not told; 25 C; PBS-Tween with 20 mM EDTA, pH 7.4; no nucleotide; conditions: remark: other sources report otherwise
[2] = target: T1, Plasmodium falciparum Hsp70-Hsp90 …; assay: SPR; ProteOn XPR36, GLC chip; PfHop immobilised by amine coupling, PfHop as analyte (125-2000 nM); self-association, step not told; 25 C; PBS-Tween with 20 mM EDTA, pH 7.4; with 5 mM ATP; conditions: remark: other sources report otherwise
[3] = target: T1, Plasmodium falciparum Hsp70-Hsp90 …; assay: SPR; ProteOn XPR36, GLC chip; PfHop immobilised by amine coupling, PfHop as analyte (125-2000 nM); self-association, step not told; 25 C; PBS-Tween with 20 mM EDTA, pH 7.4; with 5 mM ADP; conditions: remark: other sources report otherwise
[4] = target: Plasmodium falciparum Hsp70 (PfHsp70-1), full length, recombinant, his-tagged (Plasmodium falciparum, UniProt Q8IB24 1-677); assay: far-Western, overlay or dot blot; PfHsp70-1 (25, 37.5, 50 μg/mL) resolved by SDS-PAGE, blotted, denatured and renatured with urea (8 M-0 M); overlaid with PfHop in protein-binding buffer (100 mM NaCl, 20 mM Tris pH 7.6, 0.5 mM EDTA, 10% glycerol, 0.1% Tween-20, 2% skim milk, 1 mM DTT) overnight at 4°C; no nucleotide, 5 μM ADP or 5 μM ATP; detected with α-PfHop; conditions: both partners purified

| Binder | Kd [1] [nM] | koff [1] [s⁻¹] | kon [1] [M⁻¹ s⁻¹] | Kd [2] [nM] | koff [2] [s⁻¹] | kon [2] [M⁻¹ s⁻¹] | Kd [3] [nM] | koff [3] [s⁻¹] | kon [3] [M⁻¹ s⁻¹] | binding result [4] |
| --- | --- | --- | --- | --- | --- | --- | --- | --- | --- | --- |
| B1 | 1.57 | 0.000359 | 228000 | 5.18 | 0.000329 | 63500 | 7.85 | 0.000464 | 59100 | – |
| B2 | – | – | – | – | – | – | – | – | – | binds |
